The test system of the series is Bacillus subtilis DB104 (SP-AmyQ fusion secretion). As to the kind of experiment: AmyQ secretion efficiency, weighted average sort bin (1 = best secretion, 10 = worst) (bin number (weighted average, 1-10)); higher = lower secretion efficiency. The gist of the method:
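Occupied alginate beads were sorted by large-particle flow cytometry into 10 equally populated bins according to green/red fluorescence ratio. Each bead (~65 nL) held fluorescein-starch and about 0.3 cells of a B. subtilis DB104 library expressing mature AmyQ fused to designed signal peptides from the amyE locus, and beads were grown about 13 h at room temperature and stained with nile red before sorting. Bin amplicons were Illumina-sequenced, and the secretion score is the read-frequency-weighted average bin number, normalised to beads per bin, excluding low-abundance sequences.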

MLTKRLLTIYIMLLGLIFVILSALSAAWFPGAAQAEEK yielded an AmyQ secretion efficiency of 4.31.

As for MLTKRLLTIYIMLLGLIKKKRKKAQAEEK, the AmyQ secretion efficiency was 7.57. As for MLTKRLLTIYIMLLGLILAWFPGAAQAEEK, the figure is 2.09; as for MLTKRLLTIYIMLLGLIRRKPGAAQAEEK, 7.69; as for MLTKRLLTIYIMLLGLITWFPGAAQAEEK, 2.44. Under MLTKRLLTIYIMLLMLIAWFPGAAQAEEK stands 1.61. MLTKRLRKKKRRLLGLIAWFPGAAQAEEK had an AmyQ secretion efficiency of 7.67. Take MLTKRQLTIYIMLLGLIAWFPGAAQAEEK: the AmyQ secretion efficiency was found to be 2.9. Under MLTKRTTTSLLTIYIMLLGLIAWFPGAAQAEEK stands 3.1; under MLTLRTLCVLMILSGVIFFGLKIDAKDI, 6.18. Take MLYLKRVLLLLVTGLFMSLFAVTATASAQTG: the AmyQ secretion efficiency amounted to 1.49. Under MMFMFLLCVMMLLFSAIASFPVSAQAKDQ stands 6.02; under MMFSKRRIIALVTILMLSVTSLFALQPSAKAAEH, 1.68. Under MMGIMIFLTSFMLLAMTGQTALAKDV stands 3.75; under MMGKGLLAGALTATVLFGTCAVDVPGIISPKTAEAASQ, 1.48; under MMGRKVLTGSVLSLGLLVSASPAFATSP, 2.07. Take MMGVLLSALLLLLFAFEPSASGKKL: the AmyQ secretion efficiency came out at 6.16. Under MMIGQCVICLSLLVFGTTAAHAEET stands 4.07; under MMIKQCKKCLSLLVFGTTAAHAEET, 7.22. Take MMIKQCKRCKKRKVFGTTAAHAEET: the AmyQ secretion efficiency was 7.72. Turning to MMIKQCRKCKRLLVFGTTAAHAEET, the AmyQ secretion efficiency worked out at 6.79. Under MMIKQCTICLSLLVFGTTAAHAEET stands 2.71; under MMIKQCVICLSLLVFGTEDEEEEAHAEET, 6.81; under MMIKQCVICLSLLVFGTEEDAHAEET, 3.44. As for MMIKQCVICLSLLVFGTIAIAHAEET, the figure is 4.16; as for MMIKQCVICLSLLVFGTRRKAHAEET, 7.59. MMIKQCVICLSLLVFGTTAAHAARR gave an AmyQ secretion efficiency of 5.39. As for MMIKQCVICLSLLVFGTTAAHARKR, the figure is 6.42; as for MMIKQCVICLSLLVFGTTAAHSEET, 4.24. MMIKQCVICLSLLVFGTTASGTAHAEET returned an AmyQ secretion efficiency of 2.45.

Sequence MMIKQCVICLSLLVFGTTAVHAEET showed an AmyQ secretion efficiency of 1.9.

Sequence MMIKQCVICLSLLVFGTTKAHAEET displayed an AmyQ secretion efficiency of 2.63. Turning to MMIKQCVICLSLLVFGTTTAHAEET, the AmyQ secretion efficiency worked out at 2.61. For MMIKQCYGCKSLLVFGTTAAHAEET, the AmyQ secretion efficiency came to 7.62. Under MMIKQNMSSCVICLSLLVFGTTAAHAEET stands 2.9; under MMIKQNMSSNSSCVICLSLLVFGTTAAHAEET, 4.39; under MMIMQCVICLSLLVFGTTAAHAEET, 2.38. Consider MMITWNVCLTALLSVLLVAGSVPFHAEAKKP, for which the AmyQ secretion efficiency is 3.89. MMKCVICLSLLVFGTTAAHAEET came in with an AmyQ secretion efficiency of 3.1. Consider MMKKGLLAGALTATVLFGTCAVDVPGIISPKTAEAAKR, for which the AmyQ secretion efficiency was determined as 4.03. Under MMKKGLLAGALTATVLFGTCAVDVPGIISPKTAEAASR stands 2.71; under MMKKGLLAGALTATVLFGTCAVDVPGIISPKTIEAASQ, 4.02; under MMKKGLLAGALTATVLFGTCAVDVPKAEAASQ, 1.63. MMKKGLLAGALTATVLFGTCAVGVPGIISPKTAEAASQ showed an AmyQ secretion efficiency of 1.35. As for MMKKGLLAGALTATVLFGTCKDAEAASQ, the figure is 1.66; as for MMKKGLLAGALTATVLFIGTCAVDVPGIISPKTAEAASQ, 1.04.

MMKKGLLAGALTATVLFRKCAVRVPGIISPKTAEAASQ displayed an AmyQ secretion efficiency of 6.57. Under MMKKGQSGSALTATVLFGTCAVDVPGIISPKTAEAASQ stands 6.78. Under MMKKGRSRQQLTATVLFGTCAVDVPGIISPKTAEAASQ stands 7.68.

In turn, “MMKKGSLFFLLAGALTATVLFGTCAVDVPGIISPKTAEAASQ” had an AmyQ secretion efficiency of 3.32. As for MMKKLAAGLTASAIVGTTLVVTPAEAATI, the figure is 2.13. Under MMKKLFHSTLIVLLFFSFFGVIPIHAKKQ stands 1.92; under MMKKLFHSTLIVLLFFSFFGVKRKIHAKKQ, 3.3; under MMKKLFHSTLIVLLFFSFFGVQIHAKKQ, 2.18. As for MMKKLFHSTLIVLLFFSFFGVQPCHAKKQ, the figure is 1.69.

Sequence MMKKLFHSTLIVLLFFSFFGVQPEIHAKKQ came in with an AmyQ secretion efficiency of 2.24.

The sequence MMKKLFHSTLIVLLFFSFFGVQPGHAKKQ returned an AmyQ secretion efficiency of 2.96. MMKKLFHSTLIVLLFFSFFGVQPIHAAED yielded an AmyQ secretion efficiency of 3.19. As for MMKKLFHSTLIVLLFFSFFGVQPIHAAKK, the figure is 1.9. MMKKLFHSTLIVLLFFSFFGVQPIHAATR returned an AmyQ secretion efficiency of 2.55. Under MMKKLFHSTLIVLLFFSFFGVQPIHAKKR stands 2.74; under MMKKLFHSTLIVLLFFSFFGVQPLHAKKQ, 2.57; under MMKKLFHSTLIVLLFFSFFGVQPVASSASTIHAKKQ, 2.41. Under MMKKLFHSTLIVLLFFSFFGVRKKRRKIHAKKQ stands 6.23; under MMKKLFHSTLIVLLFFSFFGVSPIHAKKQ, 2.2; under MMKKLFHSTLRKLLFFSFFGVQPIHAKKQ, 7.14. As for MMKKLFHSTLRRRRFFSFFGVQPIHAKKQ, the figure is 7.67; as for MMKKLFHSTQGRQSFFSFFGVQPIHAKKQ, 7.5; as for MMKKQVMLALTAAAGLGLTALHSAPAAKAAPL, 2.65. With MMKLLAAGIIGLLTVSIASPSFAAEK, the AmyQ secretion efficiency turned out to be 2.05. Under MMKQIITATTAVVLGSTLFAGAASAQSI stands 2.49; under MMKRSSLIMMTGLLFGLTSPAFAAEK, 3.11; under MMKVLMAFIICLSLILSVLAAPPSGAKAESV, 5. MMLAKRVSALTPSTTLAITAKAKEL showed an AmyQ secretion efficiency of 7.47. Take MMLMMSVSMFLVALTMCGGLFVTPAKAVKT: the AmyQ secretion efficiency was found to be 4.77. MMLSVKIAGVLTVAAAAMTAKMYATAKGN registered an AmyQ secretion efficiency of 5.4.

MMMLRKIIGWILLLCIIPLFAFTVIASGKEV yielded an AmyQ secretion efficiency of 5.45.

Take MMMWLIIAVSLAIAIVLFMYTKGEAKAAGM: the AmyQ secretion efficiency worked out at 6.9. Consider MMQIMIFLTSFMLLAMTGQTALAKDV, for which the AmyQ secretion efficiency stood at 4.32. Under MMRIRIPMTLALGAALTIAPLSFASAEEN stands 2.92; under MMRTWNVCLTALLSVLLVAGSVPFHAEAKKP, 3.23; under MMSLLAAGIIGLLTVSIASPSFAAEK, 5.23. Under MMSLLSTLLIGIMLLTFAPSAFAKQD stands 1.88; under MMSLLVSLRVWMVFLMNWVTPDRKTAAAAVY, 5.61. As to MMSRKILLSSALSLGMLVSAAPVLATSS, the AmyQ secretion efficiency was 3.37. As for MMSSISIFITCLLITLLTMGGMIASPASAAGT, the figure is 2.44. As for MMSTIFAFLTGLMMFGTITAASASPD, the figure is 4.92; as for MMSTIMSFVAVAALSTTAFGAHASAKEI, 4.72. For the sequence MMTAIIIAIIAAVIVIAALITFNVRNASPG, the AmyQ secretion efficiency is 6.42. Consider MMTIWIGMLAAAVLLLMVPKVSLADAA, for which the AmyQ secretion efficiency amounted to 5.79. MMTKSKLLLSCLALSTVFVATTIANAPTH gave an AmyQ secretion efficiency of 5.2. MMTLCVMMLLFSAIASFPVSAQAKDQ registered an AmyQ secretion efficiency of 7.11. MMTMLFHSTLIVLLFFSFFGVQPIHAKKQ had an AmyQ secretion efficiency of 2.1. Under MMTTIFAFLTGLMMFGTITAASASPD stands 4.48. As for MMVCMKSIVRFLVSLIIGTFVISVPFMANAQSD, the AmyQ secretion efficiency was found to be 2.06. As for MNFKKTGVSALSISALALSVSGVASAHEI, the figure is 3.9. As for MNFKKTITTSSSVVSALSISALALSVSGVASAHEI, the figure is 4.04; as for MNFKKTTSIVVSALSISALALSVSGVASAHEI, 3.35. Under MNFKKTVRKRRSISALALSVSGVASAHEI stands 7.55; under MNFKKTVVSALSISALALEEEDEDASAHEI, 6.1. Consider MNFKKTVVSALSISALALEEEGVASAHEI, for which the AmyQ secretion efficiency turned out to be 7.3. In the case of MNFKKTVVSALSISALALEPSGVASAHEI, the AmyQ secretion efficiency stood at 2.95. Under MNFKKTVVSALSISALALKKRGVASAHEI stands 6.98.

With MNFKKTVVSALSISALALRKRRKRASAHEI, the AmyQ secretion efficiency was 7.78. As for MNFKKTVVSALSISALALSVSGVASAHSD, the figure is 2.93.

MNFKKTVVSALSISALALSVSGVASAHTI displayed an AmyQ secretion efficiency of 3.63. Consider MNFKKTVVSALSISALALSVSGVASARRK, for which the AmyQ secretion efficiency was 6.94. MNFKKTVVSALSISALALSVSGVASGHEI: the AmyQ secretion efficiency was determined as 4.67. The sequence MNFKKTVVSALSISALALSVSGVASSHEI gave an AmyQ secretion efficiency of 5.89.

For the origin of these results see the supplement of paper PMC9942255.
